Here are results for six molecules from publication PMC8892085, “Molecular insights into the interaction between human nicotinamide phosphoribosyltransferase and Toll-like receptor 4” (The Journal of Biological Chemistry, 2022).

The chains are these.
B1: human nicotinamide phosphoribosyltransferase (NAMPT), wildtype (enzyme)
chain: MNPAAEAEFNILLATDSYKVTHYKQYPPNTSKVYSYFECREKKTENSKLRKVKYEETVFYGLQYILNKYLKGKVVTKEKIQEAKDVYKEHFQDDVFNEKGWNYILEKYDGHLPIEIKAVPEGFVIPRGNVLFTVENTDPECYWLTNWIETILVQSWYPITVATNSREQKKILAKYLLETSGNLDGLEYKLHDFGYRGVSSQETAGIGASAHLVNFKGTDTVAGLALIKKYYGTKDPVPGYSVPAAEHSTITAWGKDHEKDAFEHIVTQFSSVPVSVVSDSYDIYNACEKIWGEDLRHLIVSRSTQAPLIIRPDSGNPLDTVLKVLEILGKKFPVTENSKGYKLLPPYLRVIQGDGVDINTLQEIVEGMKQKMWSIENIAFGSGGGLLQKLTRDLLNCSFKCSYVVTNGLGINVFKDPVADPNKRSKKGRLSLHRTPAGNFVTLEEGKGDLEEYGQDLLHTVFKNGKVTKSYSFDEIRKNAQLNIELEAAHH
notes: nicotinamide phosphoribosyltransferase (NAMPT), human, UniProt P43490; also called WT; HsNAMPT; source: ClearColi BL21 (DE3), purified (Ni-NTA, PD10; ε-poly-L-lysine resin to remove endotoxin)
B2: NAMPT β-loop double mutant K(42/48)A (enzyme, human)
chain: B1 chain with K42A, K48A
notes: nicotinamide phosphoribosyltransferase (NAMPT), human, UniProt P43490; mutagenised pET15b plasmid; K42 and K48 replaced with alanine; source: ClearColi BL21 (DE3), purified (Ni-NTA, PD10; ε-poly-L-lysine resin to remove endotoxin)
B3: NAMPT β-loop full mutant K/R(42>51)A (enzyme, human)
chain: B1 chain with K42A, K43A, K48A, R50A, K51A
notes: nicotinamide phosphoribosyltransferase (NAMPT), human, UniProt P43490; mutagenised pET15b plasmid; the entire set of positive residues of the β1-β2 K-rich loop (residues 42-51) replaced with alanine; source: ClearColi BL21 (DE3), purified (Ni-NTA, PD10; ε-poly-L-lysine resin to remove endotoxin)
B4: NAMPT α-loop triple mutant K(68>73)A (enzyme, human)
chain: B1 chain with K68A, K71A, K73A
notes: nicotinamide phosphoribosyltransferase (NAMPT), human, UniProt P43490; mutagenised pET15b plasmid; source: ClearColi BL21 (DE3), purified (Ni-NTA, PD10; ε-poly-L-lysine resin to remove endotoxin)
B5: NAMPT α-loop double mutant K(68/71)S (enzyme, human)
chain: B1 chain with K68S, K71S
notes: nicotinamide phosphoribosyltransferase (NAMPT), human, UniProt P43490; mutagenised pET15b plasmid; K68 and K71 replaced with serine; source: ClearColi BL21 (DE3), purified (Ni-NTA, PD10; ε-poly-L-lysine resin to remove endotoxin)
B6: NAMPT β-loop deletion mutant Δ(42>51) (enzyme, human)
chain: MNPAAEAEFNILLATDSYKVTHYKQYPPNTSKVYSYFECREVKYEETVFYGLQYILNKYLKGKVVTKEKIQEAKDVYKEHFQDDVFNEKGWNYILEKYDGHLPIEIKAVPEGFVIPRGNVLFTVENTDPECYWLTNWIETILVQSWYPITVATNSREQKKILAKYLLETSGNLDGLEYKLHDFGYRGVSSQETAGIGASAHLVNFKGTDTVAGLALIKKYYGTKDPVPGYSVPAAEHSTITAWGKDHEKDAFEHIVTQFSSVPVSVVSDSYDIYNACEKIWGEDLRHLIVSRSTQAPLIIRPDSGNPLDTVLKVLEILGKKFPVTENSKGYKLLPPYLRVIQGDGVDINTLQEIVEGMKQKMWSIENIAFGSGGGLLQKLTRDLLNCSFKCSYVVTNGLGINVFKDPVADPNKRSKKGRLSLHRTPAGNFVTLEEGKGDLEEYGQDLLHTVFKNGKVTKSYSFDEIRKNAQLNIELEAAHH
notes: nicotinamide phosphoribosyltransferase (NAMPT), human, UniProt P43490; pET15b plasmid changed with the In-Fusion kit; the β1-β2 K-rich loop fully deleted; also called ΔK(42>51); β-loop deleted mutant; source: ClearColi BL21 (DE3), purified (Ni-NTA, PD10; ε-poly-L-lysine resin to remove endotoxin)

Positions count from the first letter of the chain named.

T1 sequence (O00206 24-629): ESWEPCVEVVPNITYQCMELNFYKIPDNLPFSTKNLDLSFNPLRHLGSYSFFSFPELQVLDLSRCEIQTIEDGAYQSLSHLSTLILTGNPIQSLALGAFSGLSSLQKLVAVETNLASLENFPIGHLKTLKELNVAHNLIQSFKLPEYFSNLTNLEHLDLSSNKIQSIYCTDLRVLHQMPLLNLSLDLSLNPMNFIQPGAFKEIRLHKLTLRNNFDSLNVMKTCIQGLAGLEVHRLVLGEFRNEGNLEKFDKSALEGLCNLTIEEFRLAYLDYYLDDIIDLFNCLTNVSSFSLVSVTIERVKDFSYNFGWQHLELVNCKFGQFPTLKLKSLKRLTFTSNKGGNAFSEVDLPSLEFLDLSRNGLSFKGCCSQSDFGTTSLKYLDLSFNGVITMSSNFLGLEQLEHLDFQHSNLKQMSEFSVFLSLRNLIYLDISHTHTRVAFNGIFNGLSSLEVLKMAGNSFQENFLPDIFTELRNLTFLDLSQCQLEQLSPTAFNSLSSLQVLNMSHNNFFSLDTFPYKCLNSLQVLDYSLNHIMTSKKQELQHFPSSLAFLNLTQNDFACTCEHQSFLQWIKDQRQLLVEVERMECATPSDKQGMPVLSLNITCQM

One data set has as its target T1, Toll-like receptor 4 (TLR4) (human, UniProt O00206 24-629).
T1 construct: Toll-like receptor 4 (TLR4) from the plasmid pEFBOS-TLR4 (Dr Kensuke Miyake); the introduction speaks of the extracellular domain of TLR4; human TLR4 (AAY82270.1) is named for the docking model; Cells were lysed with 0.3% Triton X-100, which may mean the whole receptor; Anchored to the sensor 'via the N terminus of the histidine tail'; also called biosensor-tethered TLR4
As to the kind of experiment: SPR; evanescent wave/resonant mirror optical biosensor (IAsys plus), called surface plasmon resonance by the paper; TLR4 covalently anchored (EDC/NHS) to carboxylate cuvettes, 1.3 ng/mm^2; NAMPT proteins soluble, 1 to 3 nM; PBS; 37 °C; monoexponential fit. Conditions: both partners purified.
Regarding B1, the equilibrium dissociation constant (Kd) worked out at 17.8 nM, the off-rate (koff) came to 0.005 ± 0.001 s⁻¹ and the association rate constant (kon) worked out at 280000 M⁻¹ s⁻¹.

For the molecule B2, the equilibrium dissociation constant (Kd) is 37.1 nM, the off-rate (koff) worked out at 0.029 ± 0.003 s⁻¹ and the kon was 780000 M⁻¹ s⁻¹.

For B3, the Kd worked out at 630 nM, the koff stood at 0.085 ± 0.023 s⁻¹ and the association rate constant (kon) is 130000 M⁻¹ s⁻¹.

As for B4, the dissociation constant (Kd) came to 1280 nM, the dissociation rate constant (koff) worked out at 0.004 ± 0.002 s⁻¹ and the kon stood at 3100 M⁻¹ s⁻¹.

As to B5, the Kd is 20.8 nM, the off-rate constant (koff) amounted to 0.01 ± 0.004 s⁻¹ and the kon was 480000 M⁻¹ s⁻¹.

As for B6, the Kd was found to be 218 nM, the koff came out at 0.07 ± 0.02 s⁻¹ and the kon is 320000 M⁻¹ s⁻¹.

The next data set concerns the molecule itself. As to the kind of experiment: SEC; Superose 12 10/300 GL, 50 mM Hepes pH 7.5, 0.3 M NaCl; proteins loaded at 0.9 mg/ml; standards BSA, ovalbumin, carbonic anhydrase.
Details: not given
In the case of B1, the “stoichiometry N” value came out at 2.

As to B2, the “stoichiometry N” value came to 2.

On to B3, for which the “stoichiometry N” value is 2.

For the molecule B4, the “stoichiometry N” value came out at 2.

Turning to B5, the “stoichiometry N” value amounted to 2.

For B6, the “stoichiometry N” value was found to be 2.
